In patent US20110250668:

Target: CBD-cohesin from C. thermocellum displayed on the yeast cell surface (CtCBDcoh yeast), P32781
Sequence (P32781 whole entry, looked up): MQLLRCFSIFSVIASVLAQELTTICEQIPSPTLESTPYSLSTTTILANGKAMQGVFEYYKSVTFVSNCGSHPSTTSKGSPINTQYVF

B1: Cel8A cellulase spliced to the Cel48S dockerin with aspartic acid substituted for the No. 18 and No. 50 asparagines, His-tagged (CtCBDcohCel8A48SdocN-D yeast) (protein)
chain: AGVPFNTKYPYGPTSIADNQSEVTAMLKAEWEDWKSKRITSNGAGGYKRVQRDASTNYDTVSEGMGYGLLLAVCFNEQALFDDLYRYVKSHFNGNGLMHWHIDANNNVTSHDGGDGAATDADEDIALALIFADKLWGSSGAINYGQEARTLINNLYNHCVEHGSYVLKPGDRWGGSSVTNPSYFAPAWYKVYAQYTGDTRWNQVADKCYQIVEEVKKYNNGTGLVPDWCTASGTPASGQSYDYKYDATRYGWRTAVDYSWFGDQRAKANCDMLTKFFARDGAKGIVDGYTIQGSKISNNHNASFIGPVAAASMTGYDLNFAKELYRETVAVKDSEYYGYYGNSLRLLTLLYITGNFPNPLSDLSGQPTPPSNPTPSLPPQVVYGPSSGTPSTKLYGDVNDDGKVDSTDAVALKRYVLRSGISINTDNADLNEDGRVDSTDLGILKRYILKEIDTLPYKN
In the case of B1, the CMC decomposition activity is reported as “CMC decomposition activity was increased by amino acid substitution (FIG. 11), indicating improved saccharification ability of the yeast”.
